The values that follow come from US20100202967A1 (BRACCO IMAGING, published 2010).

Test [1] has as its target T1, fibrin.
T1 chain 1: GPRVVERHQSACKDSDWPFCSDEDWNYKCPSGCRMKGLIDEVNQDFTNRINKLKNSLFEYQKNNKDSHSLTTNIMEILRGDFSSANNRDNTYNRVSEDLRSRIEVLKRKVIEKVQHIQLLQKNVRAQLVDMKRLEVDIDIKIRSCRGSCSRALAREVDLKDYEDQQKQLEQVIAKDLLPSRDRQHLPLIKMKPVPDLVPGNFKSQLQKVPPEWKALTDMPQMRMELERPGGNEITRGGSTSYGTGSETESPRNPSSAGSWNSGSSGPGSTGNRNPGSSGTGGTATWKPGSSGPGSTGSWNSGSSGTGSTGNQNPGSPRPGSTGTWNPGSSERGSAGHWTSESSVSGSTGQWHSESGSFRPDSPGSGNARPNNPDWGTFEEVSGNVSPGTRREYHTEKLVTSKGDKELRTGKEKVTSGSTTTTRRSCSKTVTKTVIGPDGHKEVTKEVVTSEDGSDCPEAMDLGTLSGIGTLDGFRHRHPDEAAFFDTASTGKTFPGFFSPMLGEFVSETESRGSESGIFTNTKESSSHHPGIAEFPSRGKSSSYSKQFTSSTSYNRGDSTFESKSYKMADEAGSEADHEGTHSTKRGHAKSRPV
T1 chain 2: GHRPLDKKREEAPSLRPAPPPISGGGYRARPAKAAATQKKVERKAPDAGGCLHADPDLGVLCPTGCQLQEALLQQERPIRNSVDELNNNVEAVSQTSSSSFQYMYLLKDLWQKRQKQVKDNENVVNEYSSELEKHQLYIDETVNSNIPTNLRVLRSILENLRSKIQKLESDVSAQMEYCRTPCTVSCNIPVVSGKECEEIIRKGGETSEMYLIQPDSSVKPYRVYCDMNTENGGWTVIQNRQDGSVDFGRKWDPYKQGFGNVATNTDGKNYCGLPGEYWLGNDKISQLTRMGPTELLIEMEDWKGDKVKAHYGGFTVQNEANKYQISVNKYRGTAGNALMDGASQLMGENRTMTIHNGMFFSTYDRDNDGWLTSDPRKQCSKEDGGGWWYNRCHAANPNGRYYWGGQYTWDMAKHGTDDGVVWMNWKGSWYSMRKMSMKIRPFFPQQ
T1 chain 3: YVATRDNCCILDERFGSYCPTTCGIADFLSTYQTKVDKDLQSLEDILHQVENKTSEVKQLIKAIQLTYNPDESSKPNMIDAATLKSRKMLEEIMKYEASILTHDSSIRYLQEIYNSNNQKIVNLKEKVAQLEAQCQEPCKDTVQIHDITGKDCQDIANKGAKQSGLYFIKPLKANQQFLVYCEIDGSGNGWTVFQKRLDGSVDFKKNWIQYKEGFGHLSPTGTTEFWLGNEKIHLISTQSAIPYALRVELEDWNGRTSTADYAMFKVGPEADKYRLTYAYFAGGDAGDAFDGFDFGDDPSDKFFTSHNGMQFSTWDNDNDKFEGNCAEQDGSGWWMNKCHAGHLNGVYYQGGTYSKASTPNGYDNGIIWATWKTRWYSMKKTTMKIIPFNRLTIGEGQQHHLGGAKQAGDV
Put plainly: competition fluorescence polarization assay (n = 2).

Test [2] has as its target T1, fibrin. The test is described as follows: fluorescence polarization, direct binding (n = 2).

Bridge positions count the residues as written; N and C are the ends. Square brackets hold non-standard residues; d marks the D form. * marks the point of attachment. αGalNAc = CC(=O)N[C@@H]1[C@@H](O)[C@@H](O)[C@@H](CO)O[C@@H]1*; Hyp = O=C(O)[C@@H]1C[C@@H](O)CN1; Cha = N[C@@H](CC1CCCCC1)C(=O)O; CF5 = 5-carboxyfluorescein; AEEA = NCCOCCOCC(=O)O

Ac-KKGWQPCPWESWTFCWDPGGGK-NH2 (disulfide 7-15) [Ac-KKGWQPC*PWESWTFC*WDPGGGK-NH2]: the “Rel IC50” value in the test with fibrin [1] was 0.357 ratio to Ac-Seq000-GGGK-NH2. Take Ac-WQPCPAESWT[Cha]CWDPGGGK(CF5)-NH2 (disulfide 4-12) [Ac-WQPC*PAESWT-Cha-C*WDPGGGK(CF5)-NH2]: the affinity with fibrin [2], expressed as Kd, was 170 nM. In the case of Ac-RWQPCPAESWT[Cha]CWDPGGGK(CF5)-NH2 (disulfide 5-13) [Ac-RWQPC*PAESWT-Cha-C*WDPGGGK(CF5)-NH2], the Kd with fibrin [2] was 80 nM. The same measure, in the same setting: the result for H-RGWQPCPWESWTFCWDPGGGK(CF5)-NH2 (disulfide 6-14) [RGWQPC*PWESWTFC*WDPGGGK(CF5)-NH2] reads 280 nM; that for Ac-SGSGSGSGWQPCPWESWTFCWDPGGGK(CF5)-NH2 (disulfide 12-20) [Ac-SGSGSGSGWQPC*PWESWTFC*WDPGGGK(CF5)-NH2], 470 nM; that for Ac-SGSG[AEEA]WQPCPAESWTFCWDPGGGK(CF5)-NH2 (disulfide 9-17) [Ac-SGSGJWQPC*PAESWTFC*WDPGGGK(CF5)-NH2], 570 nM. The same measure, in the same setting: for Ac-RRGGWQPCPAESWTFCWDPGGGK(CF5)-NH2 (disulfide 8-16) [Ac-RRGGWQPC*PAESWTFC*WDPGGGK(CF5)-NH2] the value was 220 nM; for Ac-KGKGKGWQPCPWESWTFCWDPGGGK(CF5)-NH2 (disulfide 10-18) [Ac-KGKGKGWQPC*PWESWTFC*WDPGGGK(CF5)-NH2], 760 nM; for Ac-SGSG[AEEA]WQPCPWESWTFCWDPGGGK(CF5)-NH2 (disulfide 9-17) [Ac-SGSGJWQPC*PWESWTFC*WDPGGGK(CF5)-NH2], 450 nM. On to Ac-SGSG[AEEA]WQPCPWESWTFCWDPGGGK-NH2 (disulfide 9-17) [Ac-SGSGJWQPC*PWESWTFC*WDPGGGK-NH2], for which the “Rel IC50” value with fibrin [1] is 0.714 ratio to Ac-Seq000-GGGK-NH2.

For H-RWQPCPWESWTFCWDPGGGK-NH2 (disulfide 5-13) [RWQPC*PWESWTFC*WDPGGGK-NH2], in the test with fibrin [1], the “Rel IC50” value was 0.47 ratio to Ac-Seq000-GGGK-NH2. For Ac-GPPGWQPCPAESWTFCWDPGGGK(CF5)-NH2 (disulfide 8-16) [Ac-GPPGWQPC*PAESWTFC*WDPGGGK(CF5)-NH2], the Kd in the test with fibrin [2] was found to be 310 nM. In other words, the sub-micromolar range. Consider Ac-KGKGKGWQPCPWESWTFCWDPGGGK-NH2 (disulfide 10-18) [Ac-KGKGKGWQPC*PWESWTFC*WDPGGGK-NH2], for which the “Rel IC50” value in the test with fibrin [1] is 0.595 ratio to Ac-Seq000-GGGK-NH2. As to Ac-GGRGWQPCPWESWTFCWDPGGGK-NH2 (disulfide 8-16) [Ac-GGRGWQPC*PWESWTFC*WDPGGGK-NH2], in the test with fibrin [1], the “Rel IC50” value was 0.37 ratio to Ac-Seq000-GGGK-NH2. For Ac-KKGWQPCPWESWTFCWDPGGGK(CF5)-NH2 (disulfide 7-15) [Ac-KKGWQPC*PWESWTFC*WDPGGGK(CF5)-NH2], the affinity in the test with fibrin [2], expressed as Kd, was 710 nM.

B1: Ac-WQPC*PAESWTFC*WDPGGGK-NH2 (peptide)
peptide: Ac-WQPCPAESWTFCWDPGGGK-NH2
modifications: disulfide 4-12
SMILES: CC(=O)N[C@@H](Cc1c[nH]c2ccccc12)C(=O)N[C@@H](CCC(N)=O)C(=O)N1CCC[C@H]1C(=O)N[C@H]1CSSC[C@@H](C(=O)N[C@@H](Cc2c[nH]c3ccccc23)C(=O)N[C@@H](CC(=O)O)C(=O)N2CCC[C@H]2C(=O)NCC(=O)NCC(=O)NCC(=O)N[C@@H](CCCCN)C(N)=O)NC(=O)[C@H](Cc2ccccc2)NC(=O)[C@H]([C@@H](C)O)NC(=O)[C@H](Cc2c[nH]c3ccccc23)NC(=O)[C@H](CO)NC(=O)[C@H](CCC(=O)O)NC(=O)[C@H](C)NC(=O)[C@@H]2CCCN2C1=O
For B1, the “Rel IC50” value with fibrin [1] is 0.875 ratio to Ac-Seq000-GGGK-NH2.

B2: Ac-S(Galnac)-JWQPC*PWESWTFC*WDPGGGK-NH2 (peptide)
peptide: Ac-S(αGalNAc)[AEEA]WQPCPWESWTFCWDPGGGK-NH2
modifications: disulfide 6-14
SMILES: CC(=O)N[C@H]1[C@@H](OC[C@H](NC(C)=O)C(=O)NCCOCCOCC(=O)N[C@@H](Cc2c[nH]c3ccccc23)C(=O)N[C@@H](CCC(N)=O)C(=O)N2CCC[C@H]2C(=O)N[C@H]2CSSC[C@@H](C(=O)N[C@@H](Cc3c[nH]c4ccccc34)C(=O)N[C@@H](CC(=O)O)C(=O)N3CCC[C@H]3C(=O)NCC(=O)NCC(=O)NCC(=O)N[C@@H](CCCCN)C(N)=O)NC(=O)[C@H](Cc3ccccc3)NC(=O)[C@H]([C@@H](C)O)NC(=O)[C@H](Cc3c[nH]c4ccccc34)NC(=O)[C@H](CO)NC(=O)[C@H](CCC(=O)O)NC(=O)[C@H](Cc3c[nH]c4ccccc34)NC(=O)[C@@H]3CCCN3C2=O)O[C@H](CO)[C@H](O)[C@@H]1O
As for B2, the “Rel IC50” value with fibrin [1] is 1.15 ratio to Ac-Seq000-GGGK-NH2. For the molecule Ac-SGSGSGSGWQPCPWESWTFCWDPGGGK-NH2 (disulfide 12-20) [Ac-SGSGSGSGWQPC*PWESWTFC*WDPGGGK-NH2], the “Rel IC50” value with fibrin [1] is 0.527 ratio to Ac-Seq000-GGGK-NH2.

For Ac-WQPC[Hyp]WESWTFCWDPGGGK-NH2 (disulfide 4-12) [Ac-WQPC*-Hypt4-WESWTFC*WDPGGGK-NH2], in the test with fibrin [1], the “Rel IC50” value was 0.55 ratio to Ac-Seq000-GGGK-NH2.

Ac-SGSGSGSGWQPCPAESWTFCWDPGGGK(CF5)-NH2 (disulfide 12-20) [Ac-SGSGSGSGWQPC*PAESWTFC*WDPGGGK(CF5)-NH2] displayed a dissociation constant Kd in the test with fibrin [2] of 530 nM. As to Ac-S(αGalNAc)WQPCPWESWTFCWDPGGGK-NH2 (disulfide 5-13) [Ac-S(Galnac)-WQPC*PWESWTFC*WDPGGGK-NH2], in the test with fibrin [1], the “Rel IC50” value is 0.559 ratio to Ac-Seq000-GGGK-NH2.

Ac-GGRGWQPCPAESWTFCWDPGGGK(CF5)-NH2 (disulfide 8-16) [Ac-GGRGWQPC*PAESWTFC*WDPGGGK(CF5)-NH2] showed a Kd with fibrin [2] of 520 nM. In the case of Ac-GPPGWQPCPWESWTFCWDPGGGK-NH2 (disulfide 8-16) [Ac-GPPGWQPC*PWESWTFC*WDPGGGK-NH2], the “Rel IC50” value in the test with fibrin [1] is 0.235 ratio to Ac-Seq000-GGGK-NH2. Regarding H-RGWQPCPWESWTFCWDPGGGK-NH2 (disulfide 6-14) [RGWQPC*PWESWTFC*WDPGGGK-NH2], in the test with fibrin [1], the “Rel IC50” value is 0.511 ratio to Ac-Seq000-GGGK-NH2. Molecule Ac-GPPGWQPCPWESWTFCWDPGGGK(CF5)-NH2 (disulfide 8-16) [Ac-GPPGWQPC*PWESWTFC*WDPGGGK(CF5)-NH2] had a Kd with fibrin [2] of 250 nM. For the molecule Ac-GWQPCPWESWTFCWDPGGGK(CF5)-NH2 (disulfide 5-13) [Ac-GWQPC*PWESWTFC*WDPGGGK(CF5)-NH2], binding with fibrin [2] was characterised by a dissociation constant (Kd) of 230 nM. Ac-S(αGalNAc)WQPCPWESWTFCWDPGGGK(CF5)-NH2 (disulfide 5-13) [Ac-S(Galnac)-WQPC*PWESWTFC*WDPGGGK(CF5)-NH2] returned a Kd in the test with fibrin [2] of 500 nM.

As for Ac-GGRGWQPCPWESWTFCWDPGGGK(CF5)-NH2 (disulfide 8-16) [Ac-GGRGWQPC*PWESWTFC*WDPGGGK(CF5)-NH2], binding with fibrin [2] was put at a Kd of 290 nM.

B3: Ac-RRGGWQPC*PWESWTFC*WDPGGGK-NH2 (peptide)
peptide: Ac-RRGGWQPCPWESWTFCWDPGGGK-NH2
modifications: disulfide 8-16
SMILES: CC(=O)N[C@@H](CCCNC(=N)N)C(=O)N[C@@H](CCCNC(=N)N)C(=O)NCC(=O)NCC(=O)N[C@@H](Cc1c[nH]c2ccccc12)C(=O)N[C@@H](CCC(N)=O)C(=O)N1CCC[C@H]1C(=O)N[C@H]1CSSC[C@@H](C(=O)N[C@@H](Cc2c[nH]c3ccccc23)C(=O)N[C@@H](CC(=O)O)C(=O)N2CCC[C@H]2C(=O)NCC(=O)NCC(=O)NCC(=O)N[C@@H](CCCCN)C(N)=O)NC(=O)[C@H](Cc2ccccc2)NC(=O)[C@H]([C@@H](C)O)NC(=O)[C@H](Cc2c[nH]c3ccccc23)NC(=O)[C@H](CO)NC(=O)[C@H](CCC(=O)O)NC(=O)[C@H](Cc2c[nH]c3ccccc23)NC(=O)[C@@H]2CCCN2C1=O
For the molecule B3, in the test with fibrin [1], the “Rel IC50” value was 0.125 ratio to Ac-Seq000-GGGK-NH2.
